Consider three molecules from article PMC9727770 (2023).

For the assay, the target named is RBD of the SARS-CoV-2 L strain spike protein, soluble (SARS-CoV-2 (L strain), UniProt P0DTC2 319-541). As to the kind of experiment: BLI. In general terms: In BLI a coated tip is dipped into the sample, and binding shifts an interference pattern.

B1: Eli Lilly Ly-CoV016 (antibody, V domains shown)
VH: EVQLVESGGGLVQPGGSLRLSCAASGFTVSSNYMSWVRQAPGKGLEWVSVIYSGGSTFYADSVKGRFTISRDNSMNTLFLQMNSLRAEDTAVYYCARVLPMYGDYLDYWGQGTLVTVSS
VL: not shown
B1 returned a Kd of 203 nM.

B2: Regn-10987 (antibody, V domains shown)
VH: QVQLVESGGGVVQPGRSLRLSCAASGFTFSNYAMYWVRQAPGKGLEWVAVISYDGSNKYYADSVKGRFTISRDNSKNTLYLQMNSLRTEDTAVYYCASGSDYGDYLLVYWGQGTLVTVSS
VL: QSALTQPASVSGSPGQSITISCTGTSSDVGGYNYVSWYQQHPGKAPKLMIYDVSKRPSGVSNRFSGSKSGNTASLTISGLQSEDEADYYCNSLTSISTWVFGGGTKLTVL
Molecule B2 showed a Kd of 74.2 nM.

B3: Regn-10933 (antibody, V domains shown)
VH: QVQLVESGGGLVKPGGSLRLSCAASGFTFSDYYMSWIRQAPGKGLEWVSYITYSGSTIYYADSVKGRFTISRDNAKSSLYLQMNSLRAEDTAVYYCARDRGTTMVPFDYWGQGTLVTVSS
VL: DIQMTQSPSSLSASVGDRVTITCQASQDITNYLNWYQQKPGKAPKLLIYAASNLETGVPSRFSGSGSGTDFTFTISGLQPEDIATYYCQQYDNLPLTFGGGTKVEIK
In the case of B3, the Kd is 14.4 nM.

In general, Kd refers to the constant that tells how readily two partners part at equilibrium. Read a high Kd as lower affinity.
